In US20230192808A1 (REGENTS OF THE UNIVERSITY OF COLORADO A BODY CORPORATE, published 2023):
One block for each binder: values may come before it. Where no end group is shown, it is not given here. The star is where a group is joined. Biotin = O=C1N[C@H]2[C@H](CS[C@H]2CCCCC(=O)*)N1; PEGS = not defined here

Legend:
HLA-DRB1*04:01 = molecular target: T1, HLA-DRB1*04:01 (human, UniProt P01903 26-216; P01911 30-227, limits assumed); test: flow cytometry, biotinylated peptide on HLA-expressing T2 cells, streptavidin-PE
T1 construct: whole, on cells; on T2 cells; also called DR4
T1 MHC II alpha: not shown
T1 MHC II beta: not shown

HLA-DRB1*04:01 G86L = molecular target: T2, HLA-DRB1*04:01 G86L (human); test: as above
T2 construct: pocket 1 variant on T2 cells

[1] = molecular target: T3, HLA-DQ2 (DQA1*05:01/DQB1*02:01) (human, UniProt P01909 24-216, limits assumed); test: flow cytometry, biotinylated peptide titrated on HLA-expressing T2 cells, streptavidin-PE
T3 construct: whole, on cells; on T2 cells

[2] = molecular target: T4, HLA-DQ2 trans (DQA1*03:01/DQB1*02:01) (human, UniProt P01909 24-216, limits assumed); test: as above
T4 construct: whole, on cells; on T2 cells
T4 MHC II alpha: not shown
T4 MHC II beta: not shown

[3] = molecular target: T5, HLA-DQ2 A57D (DQA1*05:01/DQB1*02:01 A57D) (human, UniProt P01909 24-254; P01920 33-261); test: as above
T5 construct: A57D variant of the DQB1 chain, cloned into T2 cells
T5 alpha: not shown
T5 beta: not shown

HLA-DRB1*15:01 = molecular target: T6, HLA-DRB1*15:01 (human, UniProt P01903 26-216; P01911 30-227, limits assumed); test: flow cytometry, biotinylated peptide on HLA-expressing T2 cells, streptavidin-PE
T6 construct: whole, on cells; HLA class II molecule expressed on class II negative T2 cells that carry DRA1*01:01

[4] = molecular target: T7, HLA-DQ8 (DQA1*03:01/DQB1*03:02) (human, UniProt P01909 24-216; P01920 33-230, limits assumed); test: flow cytometry, biotinylated peptide titrated on HLA-expressing T2 cells, streptavidin-PE
T7 construct: whole, on cells; on T2 cells
T7 MHC II alpha: not shown
T7 MHC II beta: not shown

HLA-DRB1*15:01 V86G = molecular target: T8, HLA-DRB1*15:01 V86G (human); test: flow cytometry, biotinylated peptide on HLA-expressing T2 cells, streptavidin-PE
T8 construct: engineered allele on T2 cells

HLA-DRB1*15:01 F47Y = molecular target: T9, HLA-DRB1*15:01 F47Y (human); test: as above
T9 construct: engineered allele on T2 cells

HLA-DRB1*15:01 A71R = molecular target: T10, HLA-DRB1*15:01 A71R (human); test: as above
T10 construct: engineered allele on T2 cells

HLA-DRB1*07:01 = molecular target: T11, HLA-DRB1*07:01 (human); test: as above
T11 construct: whole, on cells; on T2 cells by the general method; the making of this line is not described on its own; also called resistant allele (NMO)

Binder: {Biotin-PEGS}-GQVELGGGSSPETLI (reading uncertain, also called HIP9; HIP9-NPY) [Hybrid Insulin Peptide HIP8-NPY]
binding result (HLA-DRB1*04:01): no binding (tested: 100 uM)
binding result (HLA-DRB1*04:01 G86L): no binding (tested: 100 uM)
binding result [1]: no binding
binding result [2]: binds
binding result [3]: binds

Binder: ENPVVHFFKNIVTPRTPPP (also: biotinylated, site not given here) [MBP^83-101 peptide]
binding result (HLA-DRB1*04:01 G86L): binds
binding result (HLA-DRB1*15:01): binds

Binder: LVRYWISAFP (also: biotinylated, site not given here, also called RASDRP2) [RASGRP2 78-87 peptide]
binding result (HLA-DRB1*04:01): binds
binding result (HLA-DRB1*15:01): binds

Binder: HLVEELYLVAGEEG (also: biotinylated, site not given here) [Insulin Mimotope peptide]
binding result (HLA-DRB1*04:01): binds
binding result [1]: no binding
binding result [2]: binds
binding result [3]: binds
binding result [4]: binds

Binder: AQGTLSKIFKLGGRDSRSGSPMARR (also: biotinylated, site not given here) [MBP^146-170 peptide]
binding result (HLA-DRB1*15:01 V86G): binds
binding result (HLA-DRB1*04:01 G86L): binds
binding result (HLA-DRB1*15:01 F47Y): binds
binding result (HLA-DRB1*15:01 A71R): binds
binding result (HLA-DRB1*15:01): no binding (tested: 100 µM (general method))

Binder: SQVETDDLILKPGVV (peptide, UniProt P55087 285-299, looked up, also: biotinylated, site not given here, also called aquaporin 4 peptide 6) [AQP4-6 peptide]
binding result (HLA-DRB1*07:01): no binding (tested: 100 µM (general method))

Binder: RSQVETDDLILKPGV (peptide, UniProt P55087 284-298, looked up, also: biotinylated, site not given here, also called aquaporin 4 peptide 5) [AQP4-5 peptide]
binding result (HLA-DRB1*07:01): no binding (tested: 100 µM (general method))

Results, then the binder that gave them:

binding result (HLA-DRB1*04:01): no binding (tested: 100 uM)
binding result (HLA-DRB1*04:01 G86L): no binding (tested: 100 uM)
Binder: {Biotin-PEGS}-GQVELGGWSKMDQLA (reading uncertain) [Hybrid Insulin Peptide HIP1-WE14]

binding result (HLA-DRB1*04:01 G86L): no binding (tested: 100 uM)
Binder: AMMIARFKMFPEVKEKG (also: biotinylated, site not given here) [GAD65^265-281 peptide]

binding result (HLA-DRB1*04:01 G86L): no binding (tested: 100 uM)
Binder: FFRDHSYQEEA (also: biotinylated, site not given here) [MOG^97-109 peptide]

binding result (HLA-DRB1*04:01): no binding (tested: 100 uM)
binding result (HLA-DRB1*04:01 G86L): no binding (tested: 100 uM)
binding result [2]: binds
binding result [3]: binds
binding result [4]: no binding
Binder: {Biotin-PEGS}-SLQPLALEAEDLQV (reading uncertain) [Hybrid Insulin Peptide HIP11-C peptide]

binding result (HLA-DRB1*04:01): no binding (tested: 100 uM)
binding result (HLA-DRB1*04:01 G86L): no binding (tested: 100 uM)
Binder: {Biotin-PEGS}-GQVELGGGNAVEVLK (reading uncertain) [Hybrid Insulin Peptide HIP6-IAPP2]
